Data from patent US20260139055A1.
Numbering of substitutions follows the chain as printed. Names and notes keep the numbering of the source.

B1: wild-type canine IgGB (65) mAb (antibody, part only; not given: variable domains of unnamed mAb, not shown: another chain or arm of the molecule; small tags and cut ends)
constant: ASTTAPSVFPLAPSCGSTSGSTVALACLVSGYFPEPVTVSWNSGSLTSGVHTFPSVLQSSGLYSLSSMVTVPSSRWPSETFTCNVAHPASKTKVDKPVPKRENGRVPRPPDCPKCPAPEMLGGPSVFIFPPKPKDTLLIARTPEVTCVVVDLDPEDPEVQISWFVDGKQMQTAKTQPREEQFNGTYRVVSVLPIGHQDWLKGKQFTCKVNNKALPSPIERTISKARGQAHQPSVYVLPPSREELSKNTVSLTCLIKDFFPPDIDVEWQSNGQQEPESKYRTTPPQLDEDGSYFLYSKLSVDKSRWQRGDTFICAVMHEALHNHYTQESLSHSPGK
B2: canine IgGB (65) mAb with mutation T286N (antibody, part only; not given: Variable domains, not shown: another chain or arm of the molecule)
constant: B1 constant with T172N
B3: canine IgGB (65) mAb with mutation T286P (antibody, part only; not given: Variable domains, not shown: another chain or arm of the molecule)
constant: B1 constant with T172P
B4: canine IgGB (65) mAb with mutation T286Q (antibody, part only; not given: Variable domains, not shown: another chain or arm of the molecule)
constant: B1 constant with T172Q
B5: canine IgGB (65) mAb with mutation T286R (antibody, part only; not given: Variable domains, not shown: another chain or arm of the molecule)
constant: B1 constant with T172R
B6: canine IgGB (65) mAb with mutation T286S (antibody, part only; not given: Variable domains, not shown: another chain or arm of the molecule)
constant: B1 constant with T172S
B7: canine IgGB (65) mAb with mutation T286V (antibody, part only; not given: variable domains of unnamed mAb, not shown: another chain or arm of the molecule)
constant: B1 constant with T172V
B8: canine IgGB (65) mAb with mutation Q311C (antibody, part only; not given: Variable domains, not shown: another chain or arm of the molecule)
constant: B1 constant with Q197C
B9: canine IgGB (65) mAb with mutation Q311D (antibody, part only; not given: Variable domains, not shown: another chain or arm of the molecule)
constant: B1 constant with Q197D
B10: canine IgGB (65) mAb with mutation Q311E (antibody, part only; not given: Variable domains, not shown: another chain or arm of the molecule)
constant: B1 constant with Q197E
B11: canine IgGB (65) mAb with mutation Q311F (antibody, part only; not given: Variable domains, not shown: another chain or arm of the molecule)
constant: B1 constant with Q197F
B12: canine IgGB (65) mAb with mutation T286C (antibody, part only; not given: variable domains of unnamed mAb, not shown: another chain or arm of the molecule)
constant: B1 constant with T172C
B13: canine IgGB (65) mAb with mutation Q311G (antibody, part only; not given: Variable domains, not shown: another chain or arm of the molecule)
constant: B1 constant with Q197G
B14: canine IgGB (65) mAb with mutation Q311H (antibody, part only; not given: variable domains of unnamed mAb, not shown: another chain or arm of the molecule)
constant: B1 constant with Q197H
B15: canine IgGB (65) mAb with mutation Q311I (antibody, part only; not given: variable domains of unnamed mAb, not shown: another chain or arm of the molecule)
constant: B1 constant with Q197I
B16: canine IgGB (65) mAb with mutation Q311K (antibody, part only; not given: Variable domains, not shown: another chain or arm of the molecule)
constant: B1 constant with Q197K
B17: canine IgGB (65) mAb with mutation Q311L (antibody, part only; not given: Variable domains, not shown: another chain or arm of the molecule)
constant: B1 constant with Q197L
B18: canine IgGB (65) mAb with mutation Q311M (antibody, part only; not given: Variable domains, not shown: another chain or arm of the molecule)
constant: B1 constant with Q197M
B19: canine IgGB (65) mAb with mutation Q311N (antibody, part only; not given: variable domains of unnamed mAb, not shown: another chain or arm of the molecule)
constant: B1 constant with Q197N
B20: canine IgGB (65) mAb with mutation Q311P (antibody, part only; not given: variable domains of unnamed mAb, not shown: another chain or arm of the molecule)
constant: B1 constant with Q197P
B21: canine IgGB (65) mAb with mutation Q311R (antibody, part only; not given: Variable domains, not shown: another chain or arm of the molecule)
constant: B1 constant with Q197R
B22: canine IgGB (65) mAb with mutation Q311S (antibody, part only; not given: variable domains of unnamed mAb, not shown: another chain or arm of the molecule)
constant: B1 constant with Q197S
B23: canine IgGB (65) mAb with mutation T286D (antibody, part only; not given: Variable domains, not shown: another chain or arm of the molecule)
constant: B1 constant with T172D
B24: canine IgGB (65) mAb with mutation Q311T (antibody, part only; not given: Variable domains, not shown: another chain or arm of the molecule)
constant: B1 constant with Q197T
B25: canine IgGB (65) mAb with mutation Q311W (antibody, part only; not given: variable domains of unnamed mAb, not shown: another chain or arm of the molecule)
constant: B1 constant with Q197W
B26: canine IgGB (65) mAb with mutation Q311Y (antibody, part only; not given: variable domains of unnamed mAb, not shown: another chain or arm of the molecule)
constant: B1 constant with Q197Y
B27: canine IgGB (65) mAb with mutation D312A (antibody, part only; not given: variable domains of unnamed mAb, not shown: another chain or arm of the molecule)
constant: B1 constant with D198A
B28: canine IgGB (65) mAb with mutation D312C (antibody, part only; not given: variable domains of unnamed mAb, not shown: another chain or arm of the molecule)
constant: B1 constant with D198C
B29: canine IgGB (65) mAb with mutation D312E (antibody, part only; not given: Variable domains, not shown: another chain or arm of the molecule)
constant: B1 constant with D198E
B30: canine IgGB (65) mAb with mutation D312F (antibody, part only; not given: Variable domains, not shown: another chain or arm of the molecule)
constant: B1 constant with D198F
B31: canine IgGB (65) mAb with mutation D312G (antibody, part only; not given: Variable domains, not shown: another chain or arm of the molecule)
constant: B1 constant with D198G
B32: canine IgGB (65) mAb with mutation D312H (antibody, part only; not given: Variable domains, not shown: another chain or arm of the molecule)
constant: B1 constant with D198H
B33: canine IgGB (65) mAb with mutation D312I (antibody, part only; not given: Variable domains, not shown: another chain or arm of the molecule)
constant: B1 constant with D198I
B34: canine IgGB (65) mAb with mutation T286E (antibody, part only; not given: Variable domains, not shown: another chain or arm of the molecule)
constant: B1 constant with T172E
B35: canine IgGB (65) mAb with mutation D312K (antibody, part only; not given: variable domains of unnamed mAb, not shown: another chain or arm of the molecule)
constant: B1 constant with D198K
B36: canine IgGB (65) mAb with mutation D312L (antibody, part only; not given: Variable domains, not shown: another chain or arm of the molecule)
constant: B1 constant with D198L
B37: canine IgGB (65) mAb with mutation D312M (antibody, part only; not given: Variable domains, not shown: another chain or arm of the molecule)
constant: B1 constant with D198M
B38: canine IgGB (65) mAb with mutation D312N (antibody, part only; not given: Variable domains, not shown: another chain or arm of the molecule)
constant: B1 constant with D198N
B39: canine IgGB (65) mAb with mutation D312Q (antibody, part only; not given: Variable domains, not shown: another chain or arm of the molecule)
constant: B1 constant with D198Q
B40: canine IgGB (65) mAb with mutation D312R (antibody, part only; not given: variable domains of unnamed mAb, not shown: another chain or arm of the molecule)
constant: B1 constant with D198R
B41: canine IgGB (65) mAb with mutation D312S (antibody, part only; not given: variable domains of unnamed mAb, not shown: another chain or arm of the molecule)
constant: B1 constant with D198S
B42: canine IgGB (65) mAb with mutation D312T (antibody, part only; not given: Variable domains, not shown: another chain or arm of the molecule)
constant: B1 constant with D198T
B43: canine IgGB (65) mAb with mutation D312V (antibody, part only; not given: variable domains of unnamed mAb, not shown: another chain or arm of the molecule)
constant: B1 constant with D198V
B44: canine IgGB (65) mAb with mutation D312W (antibody, part only; not given: Variable domains, not shown: another chain or arm of the molecule)
constant: B1 constant with D198W
B45: canine IgGB (65) mAb with mutation T286G (antibody, part only; not given: Variable domains, not shown: another chain or arm of the molecule)
constant: B1 constant with T172G
B46: canine IgGB (65) mAb with mutation D312Y (antibody, part only; not given: variable domains of unnamed mAb, not shown: another chain or arm of the molecule)
constant: B1 constant with D198Y
B47: canine IgGB (65) mAb with mutation A426C (antibody, part only; not given: Variable domains, not shown: another chain or arm of the molecule)
constant: B1 constant with A314C
B48: canine IgGB (65) mAb with mutation A426D (antibody, part only; not given: Variable domains, not shown: another chain or arm of the molecule)
constant: B1 constant with A314D
B49: canine IgGB (65) mAb with mutation A426E (antibody, part only; not given: Variable domains, not shown: another chain or arm of the molecule)
constant: B1 constant with A314E
B50: canine IgGB (65) mAb with mutation A426G (antibody, part only; not given: variable domains of unnamed mAb, not shown: another chain or arm of the molecule)
constant: B1 constant with A314G
B51: canine IgGB (65) mAb with mutation A426I (antibody, part only; not given: Variable domains, not shown: another chain or arm of the molecule)
constant: B1 constant with A314I
B52: canine IgGB (65) mAb with mutation A426K (antibody, part only; not given: Variable domains, not shown: another chain or arm of the molecule)
constant: B1 constant with A314K
B53: canine IgGB (65) mAb with mutation A426L (antibody, part only; not given: variable domains of unnamed mAb, not shown: another chain or arm of the molecule)
constant: B1 constant with A314L
B54: canine IgGB (65) mAb with mutation A426M (antibody, part only; not given: Variable domains, not shown: another chain or arm of the molecule)
constant: B1 constant with A314M
B55: canine IgGB (65) mAb with mutation A426N (antibody, part only; not given: Variable domains, not shown: another chain or arm of the molecule)
constant: B1 constant with A314N
B56: canine IgGB (65) mAb with mutation T286H (antibody, part only; not given: variable domains of unnamed mAb, not shown: another chain or arm of the molecule)
constant: B1 constant with T172H
B57: canine IgGB (65) mAb with mutation A426P (antibody, part only; not given: Variable domains, not shown: another chain or arm of the molecule)
constant: B1 constant with A314P
B58: canine IgGB (65) mAb with mutation A426Q (antibody, part only; not given: variable domains of unnamed mAb, not shown: another chain or arm of the molecule)
constant: B1 constant with A314Q
B59: canine IgGB (65) mAb with mutation A426R (antibody, part only; not given: variable domains of unnamed mAb, not shown: another chain or arm of the molecule)
constant: B1 constant with A314R
B60: canine IgGB (65) mAb with mutation A426S (antibody, part only; not given: Variable domains, not shown: another chain or arm of the molecule)
constant: B1 constant with A314S
B61: canine IgGB (65) mAb with mutation A426T (antibody, part only; not given: variable domains of unnamed mAb, not shown: another chain or arm of the molecule)
constant: B1 constant with A314T

Each binder was assayed against canine FcRn complex (FcRn-alpha subunit and beta-microglobulin), His-tagged, biotin labeled (canine) (assay: SPR (Biacore), biotin-FcRn captured on SA surface, IgG flowed over, pH 6, 15 C).

Row | Binder | Kd
1 | B1 | 30.7 nM
2 | B2 | 6.32 nM
3 | B3 | 6.73 nM
4 | B4 | 8.58 nM
5 | B5 | 4.73 nM
6 | B6 | 6.68 nM
7 | B7 | 8.36 nM
8 | B8 | 10.3 nM
9 | B9 | 13.3 nM
10 | B10 | 9.39 nM
11 | B11 | 33 nM
12 | B12 | 8.19 nM
13 | B13 | 8.42 nM
14 | B14 | 6.66 nM
15 | B15 | 7.94 nM
16 | B16 | 6.23 nM
17 | B17 | 19.1 nM
18 | B18 | 13.1 nM
19 | B19 | 10.1 nM
20 | B20 | 21.2 nM
21 | B21 | 15.2 nM

Row | Binder | Kd
22 | B22 | 8.7 nM
23 | B23 | 6.83 nM
24 | B24 | 10.7 nM
25 | B25 | 2.49 nM
26 | B26 | 2.61 nM
27 | B27 | 10.3 nM
28 | B28 | 19 nM
29 | B29 | 14.1 nM
30 | B30 | 21.9 nM
31 | B31 | 26.8 nM
32 | B32 | 9.72 nM
33 | B33 | 21.5 nM
34 | B34 | 8.66 nM
35 | B35 | 24 nM
36 | B36 | 12.1 nM
37 | B37 | 16.2 nM
38 | B38 | 17.1 nM
39 | B39 | 9.97 nM
40 | B40 | 23.1 nM
41 | B41 | 14.8 nM
42 | B42 | 10.6 nM

Row | Binder | Kd
43 | B43 | 14.1 nM
44 | B44 | 14.4 nM
45 | B45 | 6.48 nM
46 | B46 | 25.1 nM
47 | B47 | 8.86 nM
48 | B48 | 14.9 nM
49 | B49 | 4.77 nM
50 | B50 | 7.36 nM
51 | B51 | 8.54 nM
52 | B52 | 3.81 nM
53 | B53 | 5.17 nM
54 | B54 | 8.84 nM
55 | B55 | 5.33 nM
56 | B56 | 5.07 nM
57 | B57 | 23.7 nM
58 | B58 | 8.41 nM
59 | B59 | 4.23 nM
60 | B60 | 11.9 nM
61 | B61 | 8.72 nM
